The record followed here is paper PMC10706272, “Improving the Thermostability of Thermomyces lanuginosus Lipase by Restricting the Flexibility of N-Terminus and C-Terminus Simultaneously via the 25-Loop Substitutions” (International Journal of Molecular Sciences, 2023).

Substrate in the data set: CCCCCCCCCCCCCCCC(=O)Oc1ccc([N+](=O)[O-])cc1
In words: initial-rate hydrolysis of pNPP, p-nitrophenol release, Michaelis-Menten fit. It is filed as biochemical, Thermomyces lanuginosus. Conditions: 37 °C, pH 9.0, Tris-HCl 100 mM, apparent Km, pNPP 0.25-10 mM. From the text: initial-rate hydrolysis of pNPP, p-nitrophenol release, Michaelis-Menten fit on TLL (Thermomyces lanuginosus lipase)

As a reminder, the Km is the substrate concentration at which the rate is half of its maximum. As usually defined, the Vmax is the rate approached at saturating substrate. The kcat is the maximal rate divided by the concentration of active sites. What is called kcat/Km is the second-order rate constant that governs catalysis at low substrate concentration.

B1: TLL (Thermomyces lanuginosus lipase) (Thermomyces lanuginosus) (protein)
chain: EVSQDLFNQFNLFAQYSAAAYCGKNNDAPAGTNITCTGNACPEVEKADATFLYSFEDSGVGDVTGFLALDNTNKLIVLSFRGSRSIENWIGNLNFDLKEINDICSGCRGHDGFTSSWRSVADTLRQKVEDAVREHPDYRVVFTGHSLGGALATVAGADLRGNGYDIDVFSYGAPRVGNRAFAEFLTVQTGGTLYRITHTNDIVPRLPPREFGYSHSSPEYWIKSGTLVPVTRNDIVKIEGIDATGGNNQPNIPDIPAHLWYFGLIGTCL
For the protein B1, the Km was 220 ± 50 µM, the Vmax stood at 402 µmol/min/mg, the kcat came to 594 ± 4 s⁻¹ and the kcat/Km is 2.72e+06 ± 54000 M⁻¹ s⁻¹.
